The source of these data is the RNAGym collection of RNA variant scans (doi:10.1093/nar/gkz1192).

B1: CPEB3 Ribozyme (parent)
chain: UAACAGGGGGCCACAGCAGAAGCGUUCACGUCGCAGCCCCUGUCAGAUUCUGGUGAAUCUGCGAAUUCUGCUGUAUAUCUC

Variants of B1 are the subject of the data set. The data set can be described thus: self-cleavage, relative activity (ratio to wild type); higher = more cleavage; in vitro, sequencing. The essentials:
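Relative activity compares each variant's cleaved/total read fraction with that of the unmutated ribozyme. To get these fractions, barcoded CPEB3 ribozyme libraries from rounds of error-prone PCR were transcribed with T7 RNA polymerase for 5 hours at 37°C and then given 15 min of DNase I treatment before EDTA was added. The RNAs were reverse transcribed with template switching and sequenced on Illumina, and DNA sequencing linked barcodes to variants. A minimum of 5 reads applied, and three batches were averaged.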
For the variant C32U C38U, the self-cleavage came to 0.08.

Turning to C32U A65G, the self-cleavage worked out at 0.21.

Regarding C32U A65U, the self-cleavage came out at 0.13.

C32G C37U: the self-cleavage was 0.31.

For C32A G52C, the self-cleavage came to 0.1.

Consider C32A G52U, for which the self-cleavage is 0.13.

Turning to C32A G52A, the self-cleavage was 0.29.

As to C32U G53A, the self-cleavage was 0.27.

Turning to G33A A64U, the self-cleavage came out at 0.28.

Regarding G33A A64G, the self-cleavage amounted to 0.16.

For the variant C32A C68U, the self-cleavage turned out to be 0.22.

On to C32U G52C, for which the self-cleavage is 0.2.

On to C32A U80A, for which the self-cleavage amounted to 0.37.

Turning to C32A U80C, the self-cleavage amounted to 0.69.

C32G C40U: the self-cleavage was 0.22.

As to C32A U66C, the self-cleavage was 0.16.

Consider G33A A65G, for which the self-cleavage was 0.35.

For G33A A65C, the self-cleavage was 0.11.

Consider G33A A75U, for which the self-cleavage was determined as 0.11.

C32A U69C: the self-cleavage stood at 0.07.

With C32A U69A, the self-cleavage was 0.18.

Consider C32U U58A, for which the self-cleavage is 0.14.

C32U U58C: the self-cleavage stood at 0.35.

As for C32U G46A, the self-cleavage stood at 0.15.

For C32U A47U, the self-cleavage came out at 0.32.

Turning to C32U A47G, the self-cleavage was determined as 0.19.

As for C32A G46A, the self-cleavage came to 0.11.

With C32U G70A, the self-cleavage turned out to be 0.21.

Take G33A A77U: the self-cleavage amounted to 0.23.

For G33A A77G, the self-cleavage is 0.18.

Consider G33A, for which the self-cleavage was 0.28.

As for C32U U67C, the self-cleavage was 0.19.

On to G33A C50G, for which the self-cleavage was found to be 0.22.

Regarding G33A C50U, the self-cleavage is 0.1.

As to C32U A75G, the self-cleavage amounted to 0.11.

Turning to G33A A47G, the self-cleavage worked out at 0.4.

As for C32U A35C, the self-cleavage turned out to be 0.18.

As to C32U A35G, the self-cleavage stood at 0.18.

Consider C32U A35U, for which the self-cleavage stood at 0.32.

For the variant C32A A64G, the self-cleavage was determined as 0.1.

With C32A A77U, the self-cleavage amounted to 0.33.

With C32G U43C, the self-cleavage was 0.37.

In the case of C32U G61C, the self-cleavage is 0.18.

On to C32A U60A, for which the self-cleavage stood at 0.17.

As for C32A U48C, the self-cleavage was 0.22.

In the case of C32A U48G, the self-cleavage stood at 0.24.

Turning to C32U U72A, the self-cleavage was determined as 0.11.

Regarding C32U U72C, the self-cleavage was found to be 0.4.

For C32A C40U, the self-cleavage worked out at 0.2.

For the variant C32A C40A, the self-cleavage was 0.11.

Turning to C32A C40G, the self-cleavage was found to be 0.43.

As for C32A G73A, the self-cleavage was determined as 0.49.

Turning to C32A G73C, the self-cleavage was 0.17.

Take C32U A57U: the self-cleavage came to 0.13.

Turning to C32U A57C, the self-cleavage was 0.13.

Turning to C32U A57G, the self-cleavage is 0.22.

Take C32U U74C: the self-cleavage was 0.38.

Take C32U U74G: the self-cleavage is 0.09.

For the variant C32U G55A, the self-cleavage was found to be 0.14.

Turning to C32G A77U, the self-cleavage was 0.2.

For the variant C32U A64G, the self-cleavage was found to be 0.3.

Consider C32U A64U, for which the self-cleavage was 0.13.

Take G33A A57G: the self-cleavage was 0.25.

For G33A A57C, the self-cleavage turned out to be 0.11.

For the variant C32U U76A, the self-cleavage came to 0.18.

For C32U U76C, the self-cleavage was determined as 0.2.

Turning to C32U U80C, the self-cleavage was 0.44.

As for C32A C38G, the self-cleavage was determined as 0.18.

In the case of C32A C38A, the self-cleavage is 0.25.

Take G33A C40U: the self-cleavage was 0.38.

As to G33A C40G, the self-cleavage was determined as 0.2.

For the variant G33A C40A, the self-cleavage amounted to 0.19.

With C32A U76C, the self-cleavage was 0.25.

Turning to C32A C34G, the self-cleavage amounted to 0.44.

Turning to C32U U66C, the self-cleavage is 0.22.

Consider C32U U66A, for which the self-cleavage stood at 0.22.

As for C32G A56G, the self-cleavage was 0.12.

As for C32G U72C, the self-cleavage was 0.11.

Turning to C32A A57G, the self-cleavage turned out to be 0.24.

Turning to C32A A57U, the self-cleavage was found to be 0.2.

With C32G G73A, the self-cleavage is 0.22.

On to C32G, for which the self-cleavage worked out at 0.23.

In the case of C32U, the self-cleavage amounted to 0.28.

As for C32A G63A, the self-cleavage was found to be 0.4.

Take C32A G55A: the self-cleavage was determined as 0.5.

Turning to C32G U51A, the self-cleavage worked out at 0.04.

On to C32U C68U, for which the self-cleavage is 0.2.

As for C32U C68G, the self-cleavage worked out at 0.13.

For the variant C32A U74C, the self-cleavage came to 0.22.

Regarding C32A U49A, the self-cleavage stood at 0.11.

As for C32A U49C, the self-cleavage was 0.15.

For the variant C32A U41C, the self-cleavage turned out to be 0.36.

Take C32A U41A: the self-cleavage amounted to 0.27.

C32U A56G: the self-cleavage stood at 0.17.

Consider C32U A56U, for which the self-cleavage worked out at 0.19.

C32U U69C: the self-cleavage came out at 0.17.

As to C32U U69A, the self-cleavage stood at 0.23.

In the case of C32A U72G, the self-cleavage is 0.19.

As to C32A U72C, the self-cleavage was 0.17.

In the case of C32A U72A, the self-cleavage amounted to 0.12.

As for C32G U78C, the self-cleavage came out at 0.09.

For the variant C32U U48C, the self-cleavage came out at 0.13.

Take C32G A45U: the self-cleavage was 0.08.

On to C32G A45C, for which the self-cleavage was 0.12.

In the case of G33A C39U, the self-cleavage was found to be 0.16.

Regarding C32G C44U, the self-cleavage is 0.12.

Regarding C32U C81U, the self-cleavage was 0.37.

For the variant C32G U69C, the self-cleavage was 0.44.

Consider G33A A56U, for which the self-cleavage was found to be 0.18.

Consider G33A A56G, for which the self-cleavage worked out at 0.28.

In the case of C32U U51G, the self-cleavage was found to be 0.22.

On to C32U U51C, for which the self-cleavage is 0.16.

As for C32U U51A, the self-cleavage is 0.19.

With C32G U41G, the self-cleavage came out at 0.11.

As for C32G U41A, the self-cleavage turned out to be 0.32.

With C32U C34U, the self-cleavage is 0.19.

On to C32A A56G, for which the self-cleavage came out at 0.15.

In the case of C32U C79A, the self-cleavage is 0.22.

Consider C32A C62G, for which the self-cleavage came to 0.13.

On to C32G U49C, for which the self-cleavage came out at 0.11.

For the variant C32G U54A, the self-cleavage stood at 0.19.

C32A U43C: the self-cleavage came out at 0.35.

On to C32A U43A, for which the self-cleavage amounted to 0.5.

Regarding C32G U80C, the self-cleavage was found to be 0.08.

C32G U80A: the self-cleavage was determined as 0.1.

C32U U41C: the self-cleavage amounted to 0.26.

Consider C32U U41A, for which the self-cleavage is 0.27.

Consider C32A U78C, for which the self-cleavage was determined as 0.2.

As for G33A A35U, the self-cleavage turned out to be 0.21.

As for G33A A35G, the self-cleavage amounted to 0.39.

Consider C32U G42A, for which the self-cleavage came out at 0.19.

Turning to C32U U78C, the self-cleavage stood at 0.25.

Consider C32A U58A, for which the self-cleavage turned out to be 0.37.

With C32A U67A, the self-cleavage turned out to be 0.13.

C32U U54C: the self-cleavage was 0.33.

As to C32U U54A, the self-cleavage came to 0.2.

As for C32A G70U, the self-cleavage is 0.12.

On to C32A A75C, for which the self-cleavage worked out at 0.56.

With C32A A75U, the self-cleavage was 0.16.

On to C32U A45U, for which the self-cleavage worked out at 0.3.

C32U A45G: the self-cleavage is 0.15.

In the case of C32U A45C, the self-cleavage came out at 0.15.

Take C32A G61A: the self-cleavage came to 0.19.

For C32U C59U, the self-cleavage was 0.12.

Regarding C32A A47G, the self-cleavage turned out to be 0.14.

With C32A U51C, the self-cleavage was 0.29.

With C32A U51A, the self-cleavage stood at 0.24.

Consider C32A U51G, for which the self-cleavage was 0.31.

For C32G G63A, the self-cleavage came out at 0.14.

As for C32U G63A, the self-cleavage was 0.46.

With C32A C59A, the self-cleavage is 0.15.

In the case of C32U A77C, the self-cleavage was found to be 0.15.

Consider G33A A45U, for which the self-cleavage stood at 0.39.

Consider G33A A45G, for which the self-cleavage was found to be 0.24.

For G33A A45C, the self-cleavage is 0.22.

Take C32A U54A: the self-cleavage is 0.29.

In the case of C32A U54C, the self-cleavage stood at 0.32.

Consider C32U U49C, for which the self-cleavage was determined as 0.21.

On to C32U U49A, for which the self-cleavage is 0.15.

In the case of C32U U60C, the self-cleavage was determined as 0.18.

C32U U60A: the self-cleavage came to 0.21.

As to C32U U60G, the self-cleavage came to 0.4.

Regarding C32U U43A, the self-cleavage turned out to be 0.43.

For C32U U43C, the self-cleavage turned out to be 0.25.

On to C32G A57G, for which the self-cleavage was 0.1.

Turning to C32U C39A, the self-cleavage turned out to be 0.15.

Turning to C32G U67C, the self-cleavage was determined as 0.09.
